T1: soluble human CD73 (Homo sapiens, UniProt P21589)
T1 construct: The ectodomain of CD73 (aa 27-549) was expressed as a recombinant protein with a C-terminal His6× tag; His6 (C); made in house; host or cells: transiently transfected HEK cells
T1 sequence (P21589 27-549): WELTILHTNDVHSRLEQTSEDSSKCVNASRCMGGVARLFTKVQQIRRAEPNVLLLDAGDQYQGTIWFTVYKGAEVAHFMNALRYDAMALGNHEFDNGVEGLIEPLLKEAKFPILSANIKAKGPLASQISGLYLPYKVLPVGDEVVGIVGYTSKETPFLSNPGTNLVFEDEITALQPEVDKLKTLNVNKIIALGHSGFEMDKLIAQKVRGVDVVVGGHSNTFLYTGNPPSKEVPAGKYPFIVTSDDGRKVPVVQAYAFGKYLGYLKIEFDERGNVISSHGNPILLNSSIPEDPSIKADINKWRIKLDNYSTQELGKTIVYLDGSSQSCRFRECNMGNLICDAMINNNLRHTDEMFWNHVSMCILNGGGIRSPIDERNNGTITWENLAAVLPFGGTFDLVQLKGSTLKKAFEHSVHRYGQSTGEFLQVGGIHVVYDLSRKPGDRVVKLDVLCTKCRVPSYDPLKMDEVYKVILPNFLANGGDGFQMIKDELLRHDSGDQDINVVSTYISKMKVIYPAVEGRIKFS

T2: recombinant human CD73 ectodomain (aa 27-549) with C-terminal His6x tag (human, UniProt P21589 27-549)
T2 construct: also called soluble recombinant human CD73; soluble human CD73
T2 sequence: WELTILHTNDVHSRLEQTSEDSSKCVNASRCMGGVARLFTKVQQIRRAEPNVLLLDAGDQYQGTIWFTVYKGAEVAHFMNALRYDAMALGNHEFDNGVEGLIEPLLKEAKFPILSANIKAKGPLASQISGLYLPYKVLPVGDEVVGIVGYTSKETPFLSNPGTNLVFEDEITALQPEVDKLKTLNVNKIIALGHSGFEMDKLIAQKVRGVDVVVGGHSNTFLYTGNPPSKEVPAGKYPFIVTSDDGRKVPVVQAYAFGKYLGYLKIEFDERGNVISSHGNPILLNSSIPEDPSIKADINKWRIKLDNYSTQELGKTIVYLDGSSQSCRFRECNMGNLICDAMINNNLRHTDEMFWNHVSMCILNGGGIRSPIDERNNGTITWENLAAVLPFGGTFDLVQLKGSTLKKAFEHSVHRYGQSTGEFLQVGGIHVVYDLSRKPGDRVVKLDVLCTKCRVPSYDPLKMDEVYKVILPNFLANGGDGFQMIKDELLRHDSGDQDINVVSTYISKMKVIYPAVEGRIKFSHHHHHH

B1: SB115: CD73-specific alpaca VHH clone, family 1, SEQ ID NO:63; tested as rabbit IgG hcAb (antibody)
heavy: DVQLQASGGGLVQPGGSLRLSCVVSGFTLDYYTIGWFRQAPGKEREGVSCINSSGGVTNYADSVKGRFTISRDNAKNTVYLQMNSLKSEDTAVYYCAAQKYYYCSRKGEVYDSWGQGTQVTVSS
modifications: left off: a dimerising Fc or GST
notes: tested as rabbit IgG hcAb
B2: SB108: CD73-specific alpaca VHH clone, family 1, SEQ ID NO:67; tested as rabbit IgG hcAb (antibody)
heavy: QVKLQESGGGLVHSGGSLRLSCAVSGFALDYYTIGWFRQAPGKEREGVSCISSSGSSTNYADSMKGRLTISRDNAKNTVYLQMNSLKPEDTAVYYCAAQRYYYCSDKVAVYDYWGQGTQVTVSS
modifications: left off: a dimerising Fc or GST
notes: tested as rabbit IgG hcAb
B3: SB123: CD73-specific alpaca VHH clone, family 1, SEQ ID NO:64; tested as rabbit IgG hcAb (antibody)
heavy: DVQLQESGGGLVQPGGSLTLSCAASGFTLDYLSIGWFRQVPGKEREGVSCINSSGGSTNYADSVKGRLTISRDNAKNTVYLQINSLKPEDTAVYYCAAHKYYYCSNKVAVFDYWGQGTQVTVSS
modifications: left off: a dimerising Fc or GST
notes: tested as rabbit IgG hcAb
B4: SB124: CD73-specific alpaca VHH clone, family 1, SEQ ID NO:65; tested as rabbit IgG hcAb (antibody)
heavy: QVQLQESGGGLVQPGGSLRLSCAASGFTLDYYTIGWFRQAPGKEREGVSCVSSSGDRTDYLESVKGRLTISRDNAKNTVYLQMNSLKPEDTGVYYCAAQKYYYCSGKVEVYDYWGQGTQVTVSS
modifications: left off: a dimerising Fc or GST
notes: tested as rabbit IgG hcAb
B5: SB125: CD73-specific alpaca VHH clone, family 1, SEQ ID NO:68; tested as rabbit IgG hcAb (antibody)
heavy: QVQLQESGGGLVQPGGSLRLSCAVSGFALDYYTIGWFRQAPGKEREGVSCISSSGGSTNYADSVKGRLTISRDNAKNTVYLQMNSLKPEDTAVYYCAAQRYYYCSDKVEVYDYWGQGTQVTVSS
modifications: left off: a dimerising Fc or GST
notes: tested as rabbit IgG hcAb
B6: SB98: CD73-specific alpaca VHH clone, family 1, SEQ ID NO:62; tested as rabbit IgG hcAb (antibody)
heavy: QVKLQESGGGLVQPGGSLRLSCAASGFTLDYYTIGWFRQAPGKEREGVSCISSSGGITNYADSVKGRLTISRDNAKNTVYLQMNSLKPEDTAVYYCAAQKYYYCSGKAEVYDYWGQGTQVTVSS
modifications: left off: a dimerising Fc or GST
notes: tested as rabbit IgG hcAb
B7: SB107: CD73-specific alpaca VHH clone, family 1, SEQ ID NO:66; tested as rabbit IgG hcAb (antibody)
heavy: QVQLQESGGGLVQPGGSLRLSCAASGFTLDYLTIGWFRQAPGKEREGVSCINSNGGSTIYADSVKGRLTISRDNAKNTVYLQINSLKPDDTAVYFCAAQKYYYCSGRVEVYDYWGQGIQVTVSS
modifications: left off: a dimerising Fc or GST
notes: tested as rabbit IgG hcAb
B8: SB123 rabbit IgG hcAb (Fc fusion)
heavy: DVQLQESGGGLVQPGGSLTLSCAASGFTLDYLSIGWFRQVPGKEREGVSCINSSGGSTNYADSVKGRLTISRDNAKNTVYLQINSLKPEDTAVYYCAAHKYYYCSNKVAVFDYWGQGTQVTVSS
notes: not shown: hinge and Fc-domains of rabbit IgG
B9: SB125 rabbit IgG hcAb (Fc fusion)
heavy: QVQLQESGGGLVQPGGSLRLSCAVSGFALDYYTIGWFRQAPGKEREGVSCISSSGGSTNYADSVKGRLTISRDNAKNTVYLQMNSLKPEDTAVYYCAAQRYYYCSDKVEVYDYWGQGTQVTVSS
notes: as for B8
B10: SB98 rabbit IgG hcAb (Fc fusion)
heavy: QVKLQESGGGLVQPGGSLRLSCAASGFTLDYYTIGWFRQAPGKEREGVSCISSSGGITNYADSVKGRLTISRDNAKNTVYLQMNSLKPEDTAVYYCAAQKYYYCSGKAEVYDYWGQGTQVTVSS
notes: as for B8
B11: SB108 rabbit IgG hcAb (Fc fusion)
heavy: QVKLQESGGGLVHSGGSLRLSCAVSGFALDYYTIGWFRQAPGKEREGVSCISSSGSSTNYADSMKGRLTISRDNAKNTVYLQMNSLKPEDTAVYYCAAQRYYYCSDKVAVYDYWGQGTQVTVSS
notes: as for B8
B12: SB115 rabbit IgG hcAb (Fc fusion)
heavy: DVQLQASGGGLVQPGGSLRLSCVVSGFTLDYYTIGWFRQAPGKEREGVSCINSSGGVTNYADSVKGRFTISRDNAKNTVYLQMNSLKSEDTAVYYCAAQKYYYCSRKGEVYDSWGQGTQVTVSS
notes: as for B8
B13: SB124 rabbit IgG hcAb (Fc fusion)
heavy: QVQLQESGGGLVQPGGSLRLSCAASGFTLDYYTIGWFRQAPGKEREGVSCVSSSGDRTDYLESVKGRLTISRDNAKNTVYLQMNSLKPEDTGVYYCAAQKYYYCSGKVEVYDYWGQGTQVTVSS
notes: as for B8
B14: SB142 rabbit IgG hcAb (Fc fusion)
heavy: QVQLVESGGGLVQPGGSLRLSCAASGFTFINYHMSWLRQAPGKGLEWVSEIHSRGDITSYTNSVKGRFTISRDNAKNTLYLQMNSLKFDDTAVYYCARSRDLFGEGEYDYWGRGTQVTVSS
notes: as for B8

Each molecule was assayed against T1, soluble human CD73 (assay: Off-rates of soluble CD73 from immobilized Nb-rbIgG hcAb on Octet BLI). Conditions: soluble human CD73 ectodomain 200 ng/μl as analyte; Nb-rbIgG hcAb immobilized on protein A biosensor.
Assay type: binding
Procedure: (§1) The binding off-rate constants of bivalent hcAbs to human and mouse CD73 protein were determined by […] kinetic analysis on Octet RED96 (ForteBio). Immobilization of rabbit IgG hcAbs on the protein A-biosensor surface was done in HEK-6E cell supernatant, and regeneration of analytes was done with 100 mM Glycin pH=2.5. Recombinant mouse or human CD73 ectodomain was used as analytes and tested at a saturating dose of 200 ng/μl. Sensorgrams were fitted using least square regression in association than dissociation Model in Prism8 (Graphpad).
B1 was tested, and the Kdis was 0.00035 s⁻¹. B2 gave a Kdis of 9.7e-05 s⁻¹. For B3, the Kdis was 4.3e-05 s⁻¹. With B4 the Kdis was 0.0011 s⁻¹. Molecule B5 has a Kdis of 0.00058 s⁻¹. B6 gave a Kdis of 0.0018 s⁻¹.

The molecules below were run against T1, soluble human CD73 (assay: AMP hydrolysis by soluble CD73, DPEA-Napht-Azide fluorescence assay). Conditions: 50 ng CD73, 30 min pre-incubation with 10 μl hcAb supernatant, 1 mM AMP.
Assay type: biochemical
Procedure: Recombinant human CD73 (50 ng) was pre-incubated for 30 min with hcAbs at RT in 96 well plates before addition of AMP and DPEA-Napht-Azide. Fluorescence signals were detected every 50 seconds for 30 repeats. ARFU values (>10^3/min) were calculated for a 10 min interval during the linear phase (from 5 min to 15 min) using Prism software (Graphpad). A non-specific rabbit IgG hcAb was used as control.
• 4.1 CD73 catalyzes the hydrolysis of AMP to adenosine. This reaction can be monitored by the shift in fluorescence intensity of DPEA-Napht-Azide. This property was used to determine whether hcAbs could interfere with the enzymatic activity of CD73. Soluble recombinant human CD73 (50 ng) was pre-incubated for 30 min with Nbs or hcAbs (10 μl HEK-6E cell supernatant containing 10-100 μg/ml hcAb) at RT in 96 well plates before addition of AMP (Sigma) to a final concentration of 1 mM and of DPEA-Napht-Azide to a final concentration of 50 μM. • 4.2 Fluorescence signals were recorded in white Nunc MicroWell plates (Nunc, 136101) on a Victor III plate reader (Perkin Elmer) (Exicitation filter: F485, Emission Filter: F535; CW-Lamp energy: 40000, counting time: 0.1 s). Data analyses were performed using Prism (Graphpad).
Soluble recombinant human CD73 (50 ng) was pre-incubated for 30 min with CD73-specific hcAbs or an irrelevant control hcAb (10 μl HEK-6E cell supernatant) at RT in 96 well plates before addition of AMP (Sigma) to a final concentration of 1 mM and of DPEA-Napht-Azide to a final concentration of 50 μM. Fluorescence signals were detected every 50 seconds for 30 repeats. Data analyses were performed using Prism (Graphpad).
B1 was tested, and the “effect on hydrolysis of AMP by soluble CD73” value (“effect on hydrolysis of AMP” below) was “inhibited CD73 catalyzed hydrolysis of AMP”. For B2, the “effect on hydrolysis of AMP” value was “inhibited CD73 catalyzed hydrolysis of AMP”. B7 was tested, and the “effect on hydrolysis of AMP” value was “inhibited CD73 catalyzed hydrolysis of AMP”.

What follows are molecules tested against T2, recombinant human CD73 ectodomain (aa …) (assay: BLI (Octet), immobilized Nb-rbIgG hcAb, soluble human CD73 as analyte). Conditions: not given.
Procedure: as §1
B8 was tested, and the koff was 4.3e-05 s⁻¹. For B9, the koff was 0.00058 s⁻¹. Work on B10 yielded a koff of 0.0018 s⁻¹. Work on B11 yielded a koff of 9.7e-05 s⁻¹. In the case of B12, the koff is reported as 0.00035 s⁻¹. In the case of B13, the koff is reported as 0.0011 s⁻¹. Work on B14 yielded a koff of 0.00036 s⁻¹.

Reference: patent US20240417484A1, “ANTIGEN-BINDING POLYPEPTIDES AGAINST CD73” (UNIVERSITÄTSKLINIKUM HAMBURG-EPPENDORF, priority 2021, published 2024)
